In assay [1] the target is somatostatin receptors on AR42J cells (rat). The assay can be described thus: apparent IC50; competition with ^111In-DTPA-octreotide on AR42J cells, 3 h at RT.
Assay [2] deals with gastrin-releasing peptide receptor on PC-3 cells (UniProt P30550). The assay can be described thus: competition with ^125I-BBN on PC-3 cells, repeat experiment (250 to 2 nM competitor).
gastrin-releasing peptide receptor on PC-3 cells, sequence (P30550 whole entry): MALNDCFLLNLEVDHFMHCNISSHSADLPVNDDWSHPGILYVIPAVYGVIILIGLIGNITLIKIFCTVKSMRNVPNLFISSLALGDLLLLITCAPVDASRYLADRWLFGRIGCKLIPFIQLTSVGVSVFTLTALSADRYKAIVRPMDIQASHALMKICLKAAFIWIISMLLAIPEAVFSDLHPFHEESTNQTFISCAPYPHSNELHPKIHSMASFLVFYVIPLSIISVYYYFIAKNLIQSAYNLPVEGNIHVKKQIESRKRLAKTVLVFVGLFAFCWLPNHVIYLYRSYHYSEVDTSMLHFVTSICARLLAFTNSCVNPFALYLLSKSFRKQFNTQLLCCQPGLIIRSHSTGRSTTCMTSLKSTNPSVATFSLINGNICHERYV

somatostatin receptors on AR42J cells (rat), sequence (P30680 whole entry): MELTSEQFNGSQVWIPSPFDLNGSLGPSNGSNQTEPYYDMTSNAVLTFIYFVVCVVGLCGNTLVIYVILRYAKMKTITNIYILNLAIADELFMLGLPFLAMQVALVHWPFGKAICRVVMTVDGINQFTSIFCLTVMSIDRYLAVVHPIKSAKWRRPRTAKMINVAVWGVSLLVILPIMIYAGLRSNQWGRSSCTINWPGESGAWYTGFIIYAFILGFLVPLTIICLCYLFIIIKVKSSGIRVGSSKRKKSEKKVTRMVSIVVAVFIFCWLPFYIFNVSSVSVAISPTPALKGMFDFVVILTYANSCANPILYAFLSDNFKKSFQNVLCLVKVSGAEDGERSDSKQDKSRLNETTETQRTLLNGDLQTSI

For orientation: IC50 means the concentration needed to halve the response being measured. Regarding “^69Ga-IMP466 (gallium complex of IMP 466) (peptide)”, the concentration for half-maximal inhibition (IC50) in assay [1] was determined as 13 nM.

“^19F-IMP466 (Al^19F complex of IMP 466, NOTA-D-Phe-Cys-Phe-D-Trp-Lys-Thr-Cys-Throl) (peptide)”: the IC50 in assay [1] worked out at 3.6 nM.

As to ^115In-DTPA-octreotide (peptide), the IC50 in assay [1] came out at 6.3 nM.

In assay [2], commercially available BBN peptide gave an IC50 of 24.4 nM.

Source of the values: patent publication US20130309177A1.
